Measured values as given in patent US20150087577A1 (POLYPHOR, published 2015).
Bridges are numbered along the chain shown (N, C = ends). [ ]: non-standard residue; d: D form. 2Nal = N[C@@H](Cc1ccc2ccccc2c1)C(=O)O; Cit = NC(=O)NCCC[C@H](N)C(=O)O

B1: Example 2 (peptide)
peptide: cyclo(YR[Cit]VR[dR]R[2Nal]VY[Cit]K[dP]P)
SMILES: CC(C)[C@@H]1NC(=O)[C@H](Cc2ccc3ccccc3c2)NC(=O)[C@H](CCCNC(=N)N)NC(=O)[C@@H](CCCNC(=N)N)NC(=O)[C@H](CCCNC(=N)N)NC(=O)[C@H](C(C)C)NC(=O)[C@H](CCCNC(N)=O)NC(=O)[C@H](CCCNC(=N)N)NC(=O)[C@H](Cc2ccc(O)cc2)NC(=O)[C@@H]2CCCN2C(=O)[C@H]2CCCN2C(=O)[C@H](CCCCN)NC(=O)[C@H](CCCNC(N)=O)NC(=O)[C@H](Cc2ccc(O)cc2)NC1=O
B2: Example 53 (peptide)
peptide: cyclo(YR[Cit]CRVGRR[2Nal]CY[Cit]K[dP]P)
modifications: disulfide 4-11
SMILES: CC(C)[C@@H]1NC(=O)[C@H](CCCNC(=N)N)NC(=O)[C@@H]2CSSC[C@H](NC(=O)[C@H](Cc3ccc4ccccc4c3)NC(=O)[C@H](CCCNC(=N)N)NC(=O)[C@H](CCCNC(=N)N)NC(=O)CNC1=O)C(=O)N[C@@H](Cc1ccc(O)cc1)C(=O)N[C@@H](CCCNC(N)=O)C(=O)N[C@@H](CCCCN)C(=O)N1CCC[C@@H]1C(=O)N1CCC[C@H]1C(=O)N[C@@H](Cc1ccc(O)cc1)C(=O)N[C@@H](CCCNC(=N)N)C(=O)N[C@@H](CCCNC(N)=O)C(=O)N2
B3: Example 54 (peptide)
peptide: cyclo(YR[Cit]CRG[dP]YR[2Nal]CYQK[dP]P)
modifications: disulfide 4-11
SMILES: N=C(N)NCCC[C@@H]1NC(=O)[C@@H]2CSSC[C@H](NC(=O)[C@H](Cc3ccc4ccccc4c3)NC(=O)[C@H](CCCNC(=N)N)NC(=O)[C@H](Cc3ccc(O)cc3)NC(=O)[C@H]3CCCN3C(=O)CNC1=O)C(=O)N[C@@H](Cc1ccc(O)cc1)C(=O)N[C@@H](CCC(N)=O)C(=O)N[C@@H](CCCCN)C(=O)N1CCC[C@@H]1C(=O)N1CCC[C@H]1C(=O)N[C@@H](Cc1ccc(O)cc1)C(=O)N[C@@H](CCCNC(=N)N)C(=O)N[C@@H](CCCNC(N)=O)C(=O)N2
B4: Example 55 (peptide)
peptide: cyclo(YR[Cit]CRG[dP]WR[2Nal]CYQK[dP]P)
modifications: disulfide 4-11
SMILES: N=C(N)NCCC[C@@H]1NC(=O)[C@@H]2CSSC[C@H](NC(=O)[C@H](Cc3ccc4ccccc4c3)NC(=O)[C@H](CCCNC(=N)N)NC(=O)[C@H](Cc3c[nH]c4ccccc34)NC(=O)[C@H]3CCCN3C(=O)CNC1=O)C(=O)N[C@@H](Cc1ccc(O)cc1)C(=O)N[C@@H](CCC(N)=O)C(=O)N[C@@H](CCCCN)C(=O)N1CCC[C@@H]1C(=O)N1CCC[C@H]1C(=O)N[C@@H](Cc1ccc(O)cc1)C(=O)N[C@@H](CCCNC(=N)N)C(=O)N[C@@H](CCCNC(N)=O)C(=O)N2
B5: Example 38 (peptide)
peptide: cyclo(YR[Cit]FRG[dP]RR[2Nal]FY[Cit]K[dP]P)
SMILES: N=C(N)NCCC[C@@H]1NC(=O)[C@H](Cc2ccccc2)NC(=O)[C@H](CCCNC(N)=O)NC(=O)[C@H](CCCNC(=N)N)NC(=O)[C@H](Cc2ccc(O)cc2)NC(=O)[C@@H]2CCCN2C(=O)[C@H]2CCCN2C(=O)[C@H](CCCCN)NC(=O)[C@H](CCCNC(N)=O)NC(=O)[C@H](Cc2ccc(O)cc2)NC(=O)[C@H](Cc2ccccc2)NC(=O)[C@H](Cc2ccc3ccccc3c2)NC(=O)[C@H](CCCNC(=N)N)NC(=O)[C@H](CCCNC(=N)N)NC(=O)[C@H]2CCCN2C(=O)CNC1=O

Molecular target: human CXCR4 (human, UniProt P61073 1-352)
Experiment: cell-based or functional assay

Sequence of human CXCR4 (P61073 whole entry): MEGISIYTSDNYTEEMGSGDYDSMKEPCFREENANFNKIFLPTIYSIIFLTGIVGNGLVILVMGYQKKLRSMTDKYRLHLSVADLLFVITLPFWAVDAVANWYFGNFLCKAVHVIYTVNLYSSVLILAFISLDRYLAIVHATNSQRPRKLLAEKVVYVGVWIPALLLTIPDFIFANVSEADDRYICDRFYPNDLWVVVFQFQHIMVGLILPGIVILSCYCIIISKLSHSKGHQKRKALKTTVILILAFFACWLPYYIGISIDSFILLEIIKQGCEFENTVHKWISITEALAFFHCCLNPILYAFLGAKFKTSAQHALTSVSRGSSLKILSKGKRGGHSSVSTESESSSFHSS

Row | Binder | IC50 (nM) Ca2+ assay (method 1) [nM] | IC50 (nM) Ca2+ assay (method 2) [nM]
1 | B1 | 2830 | –
2 | B2 | 57.8 | –
3 | B3 | – | 6.9
4 | B4 | – | 6.3
5 | B5 | 720 | –
